The source of these data is patent publication JP2014141434A (dated 2014).

For test [1], the target named is T1, N末端FLAG−tag付加型ヒトROBO4細胞外領域ドメイン欠損体 hROBO4−210 (human, UniProt Q8WZ75 210-1007).
T1 construct: On HEK293 cells; also called pCI−FLAG−hROBO4−210; pCI−hROBO4−210
T1 sequence: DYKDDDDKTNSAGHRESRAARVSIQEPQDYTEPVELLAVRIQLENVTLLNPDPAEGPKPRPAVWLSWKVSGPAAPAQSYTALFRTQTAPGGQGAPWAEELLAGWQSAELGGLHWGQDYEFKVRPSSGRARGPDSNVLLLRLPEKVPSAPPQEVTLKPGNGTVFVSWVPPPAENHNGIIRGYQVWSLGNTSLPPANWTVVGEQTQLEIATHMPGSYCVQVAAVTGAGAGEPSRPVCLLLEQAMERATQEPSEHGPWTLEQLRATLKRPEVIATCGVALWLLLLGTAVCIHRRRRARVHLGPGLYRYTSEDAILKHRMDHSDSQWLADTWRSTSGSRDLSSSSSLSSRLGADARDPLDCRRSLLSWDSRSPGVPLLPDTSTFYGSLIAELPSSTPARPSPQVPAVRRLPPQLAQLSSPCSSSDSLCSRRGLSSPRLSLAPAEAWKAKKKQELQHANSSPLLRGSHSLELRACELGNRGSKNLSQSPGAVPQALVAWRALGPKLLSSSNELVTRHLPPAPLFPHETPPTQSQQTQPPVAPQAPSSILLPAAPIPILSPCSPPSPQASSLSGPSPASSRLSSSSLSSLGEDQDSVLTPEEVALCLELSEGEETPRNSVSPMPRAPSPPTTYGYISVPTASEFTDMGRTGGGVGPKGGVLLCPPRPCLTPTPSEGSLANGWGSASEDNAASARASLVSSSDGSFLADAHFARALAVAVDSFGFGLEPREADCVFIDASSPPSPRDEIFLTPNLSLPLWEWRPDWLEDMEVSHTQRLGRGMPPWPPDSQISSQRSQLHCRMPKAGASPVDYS
Kind of test: flow cytometry, transfected HEK293 cells. On the technique in general: In flow cytometry, cells or beads pass a laser one at a time.

The target of test [2] is T2, N末端FLAG−tag付加型カニクイザルROBO4 cynoROBO4−2 (cynomolgus monkey, UniProt Q8WZ75 28-1007 (human entry)).
T2 construct: also called pCI−FLAG−cynoROBO4−2
T2 chain: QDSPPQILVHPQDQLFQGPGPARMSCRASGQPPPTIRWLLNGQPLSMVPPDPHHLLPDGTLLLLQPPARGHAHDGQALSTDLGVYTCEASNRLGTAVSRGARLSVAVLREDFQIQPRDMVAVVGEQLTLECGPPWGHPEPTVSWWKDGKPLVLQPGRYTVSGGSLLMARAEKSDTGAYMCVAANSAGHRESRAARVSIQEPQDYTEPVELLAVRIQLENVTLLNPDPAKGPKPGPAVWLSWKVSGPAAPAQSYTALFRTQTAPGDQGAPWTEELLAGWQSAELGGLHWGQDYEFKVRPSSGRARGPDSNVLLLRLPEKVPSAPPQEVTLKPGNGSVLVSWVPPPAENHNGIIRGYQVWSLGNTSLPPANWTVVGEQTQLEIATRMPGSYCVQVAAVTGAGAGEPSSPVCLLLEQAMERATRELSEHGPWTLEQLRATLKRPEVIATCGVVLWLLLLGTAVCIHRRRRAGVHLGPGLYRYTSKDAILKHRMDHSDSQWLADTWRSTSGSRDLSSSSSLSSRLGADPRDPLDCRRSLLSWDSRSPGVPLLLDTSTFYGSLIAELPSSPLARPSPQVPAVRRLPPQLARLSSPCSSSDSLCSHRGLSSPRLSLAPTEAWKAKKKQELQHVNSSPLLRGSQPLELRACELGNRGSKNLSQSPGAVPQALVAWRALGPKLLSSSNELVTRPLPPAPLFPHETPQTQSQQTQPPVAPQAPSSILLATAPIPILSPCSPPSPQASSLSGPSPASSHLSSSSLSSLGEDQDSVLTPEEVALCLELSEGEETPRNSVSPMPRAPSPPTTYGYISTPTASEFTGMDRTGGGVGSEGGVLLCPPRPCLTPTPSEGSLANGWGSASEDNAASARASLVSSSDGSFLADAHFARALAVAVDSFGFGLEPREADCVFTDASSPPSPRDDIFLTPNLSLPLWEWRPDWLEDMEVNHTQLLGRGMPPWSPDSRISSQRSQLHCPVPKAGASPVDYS
Kind of test: flow cytometry, transfected HEK293 cells, 10 μg/mL.

Test [3] has as its target T3, N末端FLAG−tag付加型全長ヒトROBO4 hROBO4−28 (human, UniProt Q8WZ75 28-1007).
T3 construct: On HEK293 cells; also called pCI−FLAG−hROBO4−28
T3 sequence: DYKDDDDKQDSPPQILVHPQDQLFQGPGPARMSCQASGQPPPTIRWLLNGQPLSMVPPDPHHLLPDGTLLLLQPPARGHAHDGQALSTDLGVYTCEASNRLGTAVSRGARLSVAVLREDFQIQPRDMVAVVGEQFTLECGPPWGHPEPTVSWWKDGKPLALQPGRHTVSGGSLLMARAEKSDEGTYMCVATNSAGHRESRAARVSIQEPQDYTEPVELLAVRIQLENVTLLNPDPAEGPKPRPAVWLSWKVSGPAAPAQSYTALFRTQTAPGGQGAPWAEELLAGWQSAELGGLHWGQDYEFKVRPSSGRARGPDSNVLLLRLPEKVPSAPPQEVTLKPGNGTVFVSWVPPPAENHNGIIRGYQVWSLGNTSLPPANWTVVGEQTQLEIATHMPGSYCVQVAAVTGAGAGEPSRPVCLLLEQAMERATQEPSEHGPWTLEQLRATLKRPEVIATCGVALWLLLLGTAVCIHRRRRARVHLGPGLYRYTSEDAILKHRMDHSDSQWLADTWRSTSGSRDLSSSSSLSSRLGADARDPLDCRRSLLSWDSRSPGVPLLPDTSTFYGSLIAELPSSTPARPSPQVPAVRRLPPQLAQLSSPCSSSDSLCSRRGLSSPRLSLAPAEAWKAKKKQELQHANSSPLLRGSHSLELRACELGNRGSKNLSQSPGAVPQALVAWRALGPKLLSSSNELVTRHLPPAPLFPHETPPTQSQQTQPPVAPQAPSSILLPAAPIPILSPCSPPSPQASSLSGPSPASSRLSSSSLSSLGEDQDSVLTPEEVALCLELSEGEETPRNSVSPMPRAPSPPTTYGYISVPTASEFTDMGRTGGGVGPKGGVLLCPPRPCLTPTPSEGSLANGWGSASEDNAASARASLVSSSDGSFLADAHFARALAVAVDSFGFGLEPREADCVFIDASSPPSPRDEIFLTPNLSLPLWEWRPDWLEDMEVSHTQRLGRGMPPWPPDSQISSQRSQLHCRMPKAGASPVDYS
Put plainly: flow cytometry, transfected HEK293 cells, 10 μg/mL.

B1: 抗ROBO4マウスモノクローナル抗体 MAb1 (antibody, V domains shown)
VH: EVQLVESGGGLVKPGGSLKLSCAASGFTFSTYAMSWVRQTPEKRLEWVATISNGGTYTYYPDSVKGRFTISRDNAENTLYLQMSSLRSEDTAMYFCARLIYYDYLDYWGHGTTLTVSS
VL: DAVMTQTPLSLPVSLGDQASISCRSSQSLENSNGNTYLNWYFQKPGQSPQLLIYRVSNRFSGVLDRFSGSGSGTDFTLKISRVEAEDFGVYFCLQVTHVPWTFGGGTKLEIKR
notes: Mouse IgG1 (gamma 1) / kappa from a hybridoma; The constant regions are not in the listing; also called MAb1
With B1, the results for the binding result in test [1], in test [2] and in test [3] were “no binding (tested: 10 μg/mL)”, “binds” and “binds”, respectively.
